Legend:
[1] = substrate: Nc1ncnc2c1ncn2CCOCP(=O)(O)O; experiment: TP_TRANSPORTER: uptake in OAT1-expressing CHO cells; format: functional, cell-based
[2] = substrate: Nc1ccn(C[C@@H](CO)OCP(=O)(O)O)c(=O)n1; experiment: cells, lysate or membranes named

B1: Solute carrier family 22 member 6 (Homo sapiens) (protein)
chain: MAFNDLLQQVGGVGRFQQIQVTLVVLPLLLMASHNTLQNFTAAIPTHHCRPPADANLSKNGGLEVWLPRDRQGQPESCLRFTSPQWGLPFLNGTEANGTGATEPCTDGWIYDNSTFPSTIVTEWDLVCSHRALRQLAQSLYMVGVLLGAMVFGYLADRLGRRKVLILNYLQTAVSGTCAAFAPNFPIYCAFRLLSGMALAGISLNCMTLNVEWMPIHTRACVGTLIGYVYSLGQFLLAGVAYAVPHWRHLQLLVSAPFFAFFIYSWFFIESARWHSSSGRLDLTLRALQRVARINGKREEGAKLSMEVLRASLQKELTMGKGQASAMELLRCPTLRHLFLCLSMLWFATSFAYYGLVMDLQGFGVSIYLIQVIFGAVDLPAKLVGFLVINSLGRRPAQMAALLLAGICILLNGVIPQDQSIVRTSLAVLGKGCLAASFNCIFLYTGELYPTMIRQTGMGMGSTMARVGSIVSPLVSMTAELYPSMPLFIYGAVPVAASAVTVLLPETLGQPLPDTVQDLESRWAPTQKEAGIYPRKGKQTRQQQEHQKYMVPLQASAQEKNGL
B1 was tested, and the Km [1] was 23.8 µM and the Km [2] was 58 µM.
